Assay results from paper PMC4263166.

Molecular target: Spleen tyrosine kinase (Syk) (UniProt P43405)
Test: affinity purification of mIgG2a-BCRs with protein A/G agarose beads, anti-Syk immunoblot, band intensity quantified
Conditions: no inhibitor, Ramos cells

Q: With “mIgG2a-BCR (wild-type mouse γ2am expressed in Ramos cells, with Igα/β) (from UniProt P11912;P40259) YF” as the substance, how does the response (Syk/γ2am (normalized band intensity)) (stimulated for 5 min with polyclonal goat anti-mouse IgG antibodies) read?
A: 1.7

Q: And the response (Syk/γ2am (normalized band intensity)) (unstimulated (0 min α-IgG))?
A: 0.3
